Tested on: Equine melanoma tumors
Assay: RNA-Seq transcriptomic analysis (DEGs, EdgeR) of treated equine melanoma tumors excised 6 h and 12 h after injection
Type: in vivo, Equus caballus
Procedure: Equine melanoma tumors were used in experiments with the administration of the compound of the invention, for transcriptomic analysis at different points in time. This translational experiment was carried out at Sao Joaquim Farm (SP) and the samples were transported to the Instituto Butantan, in the city of Sao Paulo. The experiment was designed with non-treated control samples at 0 h (PBS) and the treated tumors were excised 6 h and 12 h after the injection of 1 mg of polypeptide per kg of tumor. For each time point, two tumors were removed from three different animals, producing six tumors per time point. All 18 cDNA libraries were prepared following Illumina's TruSeq® RNA Preparation Kit Kits v2 protocol, and then sequenced using HiSeq 1500 Illumina technology, generating 2×100 bp chain-specific paired readings. The raw sequencing readings had the contaminants removed with bowtie2 2.2.5, and then trimmomatic was used for quality control of the sequences, to cut and remove readings with regions of low complexity and enriched with homopolymers, poly-A/T/N tails, low quality adapter strings and bases, with the fastq-mcf 1.04.662 software. The readings were filtered if more than 90% of the readings correspond to regions of homopolymer or of low complexity. Subsequently, cut if the average quality score was less than 25 in a window size equal to 15. After cutting, all readings less than 40 bp were discarded.
Total RNA was isolated from cells grown with Trizol (Ambion, Life Technologies) and purified with a Mini RNAspin kit (GE Healthcare) according to the manufacturer's instructions, with prolonged treatment with DNase I for 1 h.
RNA quality was assessed with an Agilent 2100 Bioanalyzer RNA Pico assay. RNA was quantified using the Rib-Green Quant-iT and RNA reagent kit (Invitrogen, Life Technologies). The messenger RNA (mRNA) was isolated and used to prepare the complementary DNA (cDNA) libraries following the instructions of the TruSeq RNA Sample Prep Kit V2 (Illumina, San Diego, Calif.). Briefly, the mRNA was isolated with oligo-dT and purified. Then, the mRNA was fragmented by heating to 94° C. (4 min) in fragmentation buffer. The double-stranded cDNA was synthesized, repaired at the end and tail A. The sequencing adapters were then attached to the cDNA fragments, according to the manufacturer's protocol. The cDNA fragments were enriched after 15 rounds of PCR amplification. The quality control of the library was assessed by size distribution of the cDNA libraries measured using 2100 Bioanalyzer with DNA1000 assay (Agilent Technologies) and a StepOnePlus real-time PCR system from ABI were used to quantify the sample library before sequencing. The cDNA library was sequenced on the Illumina HiSeq 1500 System, in a final flow cell paired with Rapid in a 200 pair strategy of 2-101 bp pairing strategy.
The in-silico analysis of RNA-Seq comprises several quality steps and transcriptomic quantification algorithms that are understood in the present invention as “pipeline”. (FIG. 19). The quality check was performed using FastQC3. Hisat214 was used to align readings against the horse's reference genome (Equus caballus) (annotation version 89). To map and quantify transcriptions, the feature Counts was used, resulting in a table of genetic IDs versus samples with raw reading counts. Then, differentially expressed genes (DEGs) were calculated using the EdgeR package. Genes with less than one count per million (CPM) were filtered out. The DEGs were calculated by crossing the sample values of a) 6 h after treatment (6 h)×control (0 h); b) 12 h after treatment (12 h)×control; and also, c) 12 h×6 h. DEGs are defined as an absolute value of log 2 fold change between two groups (LFC)>1 and false discovery rate (FDR)<0.05. […]

[1] = in vivo administration, RNA-Seq
[2] = treated equine melanoma tumors, RNA-Seq

B1: Amblyomin-X: recombinant Kunitz type protein identified in a cDNA library of Amblyomma sculptum tick salivary glands (protein)
chain: MRQLAVLALVIFTGMCVESQSANSKAVCNLPKLAGDETCSNKTEIRWYYNGTACEAFIFKGCGGNDNNFDRVDDCQRLCEEQTHFHFESPKLICFKVQDYWILNDIMKKNLTGISLKSEEEDADSGEID
modifications: Amblyomin-X
notes: recombinant Kunitz type protein identified in a cDNA library of Amblyomma sculptum tick salivary glands
logFC6, gene IFIH1 (RNA-seq, 6 h after treatment): 0.851
logFC6, gene IFIT1 (RNA-seq, 6 h after treatment): 2.574
logFC6, gene IL1B (RNA-seq, 6 h after treatment): 4.309
logFC6, gene IL1RN (RNA-seq, 6 h after treatment): 2.823
logFC6, gene IL13RA1 (RNA-seq, 6 h after treatment): 1.408
logFC6, gene IRF9 (RNA-seq, 6 h after treatment): 1.136
logFC6, gene ITGA1 (RNA-seq, 6 h after treatment): 1.348
logFC6, gene MYH1 (RNA-seq, 6 h after treatment): −8.4
logFC6, gene MYH3 (RNA-seq, 6 h after treatment): −3.643
logFC6, gene MYL2 (RNA-seq, 6 h after treatment): −8.697
logFC6, gene MYLPF (RNA-seq, 6 h after treatment): −5.872
logFC6, gene NTNG1 (RNA-seq, 6 h after treatment): −1.959
logFC6, gene OAS2 (RNA-seq, 6 h after treatment): 1.463
logFC6, gene PARP9 (RNA-seq, 6 h after treatment): 1.816
logFC6, gene PER1 (RNA-seq, 6 h after treatment): −1.474
logFC6, gene PIK3R6 (RNA-seq, 6 h after treatment): −1.277
logFC6, gene RUNX1 (RNA-seq, 6 h after treatment): 1.723
logFC6, gene SAA1 (RNA-seq, 6 h after treatment): 3.456
logFC6, gene SELP (RNA-seq, 6 h after treatment): 2.596
logFC6, gene SLPI (RNA-seq, 6 h after treatment): 3.009
logFC6, gene SOCS3 (RNA-seq, 6 h after treatment): 2.979
logFC6, gene STAT1 (RNA-seq, 6 h after treatment): 1.085
logFC6, gene TAT (RNA-seq, 6 h after treatment): 5.292
logFC6, gene TEAD4 (RNA-seq, 6 h after treatment): 1.685
logFC6, gene THBS1 (RNA-seq, 6 h after treatment): 1.819
logFC6, gene TLR2 (RNA-seq, 6 h after treatment): 1.5586
logFC6, gene TREM1 (RNA-seq, 6 h after treatment): 5.551
logFC12, gene ACTN1 (RNA-seq, 12 h after treatment): 1.006
logFC12, gene BCL3 (RNA-seq, 12 h after treatment): 1.709
logFC12, gene BIRC3 (RNA-seq, 12 h after treatment): 0.9146
logFC12, gene CAD (RNA-seq, 12 h after treatment): 1.028
logFC12, gene CCL2 (RNA-seq, 12 h after treatment): 3.517
logFC12, gene CDO1 (RNA-seq, 12 h after treatment): −2.408
logFC12, gene CTSL (RNA-seq, 12 h after treatment): 1.385
logFC12, gene CXCL6 (RNA-seq, 12 h after treatment): 3.417
logFC12, gene DDX58 (RNA-seq, 12 h after treatment): 1.76
logFC12, gene F12 (RNA-seq, 12 h after treatment): 3.104
logFC12, gene FOSL1 (RNA-seq, 12 h after treatment): 4.028
logFC12, gene FSCN1 (RNA-seq, 12 h after treatment): 1.831
logFC12, gene HMOX1 (RNA-seq, 12 h after treatment): 1.117
logFC12, gene HSPA6 (RNA-seq, 12 h after treatment): 4.55
logFC12, gene IFI35 (RNA-seq, 12 h after treatment): 1.639
logFC12, gene IFIH1 (RNA-seq, 12 h after treatment): 1.823
logFC12, gene IFIT1 (RNA-seq, 12 h after treatment): 2.655
logFC12, gene IL1B (RNA-seq, 12 h after treatment): 3.152
logFC12, gene IL1RN (RNA-seq, 12 h after treatment): 2.805
logFC12, gene IL13RA1 (RNA-seq, 12 h after treatment): 1.28
logFC12, gene IRF9 (RNA-seq, 12 h after treatment): 1.462
logFC12, gene ITGA1 (RNA-seq, 12 h after treatment): 1.094
logFC12, gene MYH1 (RNA-seq, 12 h after treatment): −8.31
logFC12, gene MYH3 (RNA-seq, 12 h after treatment): 3.004
logFC12, gene MYL2 (RNA-seq, 12 h after treatment): −7.917
logFC12, gene MYLPF (RNA-seq, 12 h after treatment): −5.428
logFC12, gene NTNG1 (RNA-seq, 12 h after treatment): −2.943
logFC12, gene OAS2 (RNA-seq, 12 h after treatment): 2.491
logFC12, gene PARP9 (RNA-seq, 12 h after treatment): 2.109
logFC12, gene PER1 (RNA-seq, 12 h after treatment): −1.139
logFC12, gene PIK3R6 (RNA-seq, 12 h after treatment): −1.356
logFC12, gene RUNX1 (RNA-seq, 12 h after treatment): 1.443
logFC12, gene SAA1 (RNA-seq, 12 h after treatment): 3.902
logFC12, gene SELP (RNA-seq, 12 h after treatment): 2.395
logFC12, gene SLPI (RNA-seq, 12 h after treatment): 3.051
logFC12, gene SOCS3 (RNA-seq, 12 h after treatment): 2.423
logFC12, gene STAT1 (RNA-seq, 12 h after treatment): 1.267
logFC12, gene TAT (RNA-seq, 12 h after treatment): 5.521
logFC12, gene TEAD4 (RNA-seq, 12 h after treatment): 1.949
logFC12, gene THBS1 (RNA-seq, 12 h after treatment): 0.8749
logFC12, gene TLR2 (RNA-seq, 12 h after treatment): 1.839
logFC12, gene TREM1 (RNA-seq, 12 h after treatment): 5.559
LFC SELE (6 h×0 h) (e-selectin (SELE) gene, log2 fold change, 6 h after treatment vs control 0 h, RNA-Seq): 2.33
LFC SELE (12 h×0 h) (e-selectin (SELE) gene, log2 fold change, 12 h after treatment vs control 0 h, RNA-Seq): 1.78
logFC6 BATF3 (gene BATF3, RNA-seq, 6 hours after treatment): 3.137
logFC12 BATF3 (gene BATF3, RNA-seq, 12 hours after treatment): 2.91
logFC6 CAV3 (gene CAV3, RNA-seq, 6 hours after treatment): −3.0363
logFC12 CAV3 (gene CAV3, RNA-seq, 12 hours after treatment): −6.6813
logFC6 CCR7 (gene CCR7, RNA-seq, 6 hours after treatment): 2.652
logFC12 CCR7 (gene CCR7, RNA-seq, 12 hours after treatment): 2.359
logFC6 CDH15 (gene CDH15, RNA-seq, 6 hours after treatment): −2.616
logFC12 CDH15 (gene CDH15, RNA-seq, 12 hours after treatment): −1.702
logFC6 EIF2AK2 (gene EIF2AK2, RNA-seq, 6 hours after treatment): 2.4
logFC12 EIF2AK2 (gene EIF2AK2, RNA-seq, 12 hours after treatment): 2.959
logFC6 ETV6 (gene ETV6, RNA-seq, 6 hours after treatment): 1.795
logFC12 ETV6 (gene ETV6, RNA-seq, 12 hours after treatment): 1.871
logFC6 IL7R (gene IL7R, RNA-seq, 6 hours after treatment): 2.532
logFC12 IL7R (gene IL7R, RNA-seq, 12 hours after treatment): 2.227
logFC6 IL18RAP (gene IL18RAP, RNA-seq, 6 hours after treatment): 2.817
logFC12 IL18RAP (gene IL18RAP, RNA-seq, 12 hours after treatment): 2.593
logFC6 MYLK2 (gene MYLK2, RNA-seq, 6 hours after treatment): −5.152
logFC12 MYLK2 (gene MYLK2, RNA-seq, 12 hours after treatment): −5.672
logFC6 NECTIN3 (gene NECTIN3, RNA-seq, 6 hours after treatment): 1.287
logFC12 NECTIN3 (gene NECTIN3, RNA-seq, 12 hours after treatment): 1.113
logFC6 NLRC4 (gene NLRC4, RNA-seq, 6 hours after treatment): 5.503
logFC12 NLRC4 (gene NLRC4, RNA-seq, 12 hours after treatment): 5.687
logFC6 NLRP12 (gene NLRP12, RNA-seq, 6 hours after treatment): 3.4
logFC12 NLRP12 (gene NLRP12, RNA-seq, 12 hours after treatment): 2.297
logFC6 OAS3 (gene OAS3, RNA-seq, 6 hours after treatment): 1.716
logFC12 OAS3 (gene OAS3, RNA-seq, 12 hours after treatment): 2.112
logFC6 PRKCQ (gene PRKCQ, RNA-seq, 6 hours after treatment): −1.531
logFC12 PRKCQ (gene PRKCQ, RNA-seq, 12 hours after treatment): −3.021
DEG modulation of ACTA1 and ACTN2 [1]: high negative regulation
DEG modulation of ACTN1 and ACTR3 [1]: positive regulation
DEG modulation of TUBB and TUBB6 (Tubulin family) [1]: positive regulation
expression of Interferons (type 1 interferon, IFN alpha and IFN beta) [2]: does not lead to the detectable expression
expression of the NOXA gene (PMAIP1) [2]: did not induce the detectable expression

— patent US12329806B2, “Compound for modulating rlr, tlr, oas and/or oncostatin m pathways, use thereof for preparing a medicine, composition, method for modulating said pathways and method of treatment” (Instituto Butantan, priority 2018, dated 2025)
